Test results reported in patent US20190161551A1 (Regeneron, published 2019).

B1: H4H9816P2 (antibody, human IgG4 S228P, kappa, V domains shown)
VH: EVQLVESGGGLVQPGGSLTLSCAASGFNFRDYEMIWVRQTPGKGLEWISYISNSGYTIYYADSVKGRFTISRDNARNSIYLQVNSLRAEDTAVYYCSRRTTMIRGIRAYYYYGLDVWGQGTTVTVSS
VL: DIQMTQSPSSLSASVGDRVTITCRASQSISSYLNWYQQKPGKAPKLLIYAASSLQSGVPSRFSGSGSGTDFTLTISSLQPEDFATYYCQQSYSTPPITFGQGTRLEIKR
notes: Fully human anti-human TrkB agonist antibody, human IgG4 Fc; also called H4H9816P-L1
B2: H4H9780P (antibody, human IgG4 S228P, kappa, V domains shown)
VH: QVQLVESGGGVVQPGRSLRLSCAASGFSFSSFGMHWVRQAPGKGLEWVSVISYDGINTYYTDSVKGRFTISRDNSKNTLYLQMNGLRAEDTALYYCVQGSIGTVFEYWGQGTLVTVSS
VL: DIQMTQSPSSLSASVGDRVTITCRASQGISNYLAWYQQKPGKVPKLLIYAASTLQSGVPSRFGGSGSGTDFTLTISSLQPEDVATYYCQKYTSAPFTFGPGTKVDIKR
notes: Fully human anti-human TrkB agonist antibody, human IgG4 Fc; also called H4H9780P-L1
B3: M2aM14173N (antibody, mouse IgG2a, kappa, V domains shown)
VH: NVSLVESGGGSVKPGGSLQLSCAASGFTFSSSAMSWIRQTPEMRLEWVATISDRGSYTYYPDSVEGRFTISRDNAKNILYLQMSHLMSEDTAMYYCARGKGEKAYYTAFFAYWGQGSLVTVSA
VL: DIQMTQSPASLSASVGETVTITCRASENIYSYLAWYQQKPGKSPHLLVHNAETLAEGVPSRFSGSGSGPQFSLKINSLQPGDSGTYYCQHHYSSPWTFGGGTKLEIKR
notes: Anti-mouse TrkB antibody from hybridoma, mouse IgG2a Fc; also called surrogate anti-mouse TrkB antibody
B4: M2aM14179N (antibody, mouse IgG2a, kappa, V domains shown)
VH: EVQLQQSGPELVKPGASVKISCKASGYTLTDYYMNWVKQSHGKSLEWIGDINPNNGGTSYNQKFKGKATLTVDKSSSTAYMELRSLTSEDSAVYYCARGAYYSNYFDYWGQGTTLTVSS
VL: DIVMSQSPSSLAVSAGEKVTMSCKSSQSLLNSRTRKNYLAWYQQKPGQSPKLLIYWASTRESGVPDRFTGSGSGTDFTLTISSVQAEDLAVYYCKQSYILFTFGSGTQLEIKR
notes: as for B3
B5: H1M8037C (antibody, mouse IgG1, kappa, V domains shown)
VH: QVQLVQSGAEVKKPGASVKVSCKASGYTFTNYDIIWVRQAPGQGLEWMGYINPYNDGTKYNEKFKGRVTMTRDTSTSTVYMELSSLRSEDTAVYYCARLLKYRRFRYYAIDYWGQGTTVTVSS
VL: DIQMTQSPSSLSASVGDRVTITCRTSENVYSNLAWYQQKPGKAPKLLIYAASNLQSGVPSRFSGSGSGTDYTFTISSLQPEDIATYYCQHFWGSPFTFGQGTKLEIKR
notes: captured by anti-mFc in SPR; also called Comparator; comparator anti-TrkB monoclonal antibody
B6: H4H9814P (antibody, human IgG4 S228P, kappa, V domains shown)
VH: EVQLVESGGGLVQPGGSLKLSCTASGFTFSGSVIHWVRQASGKGLEWIGRIRNKANSYATAYGASVTGRFTISRDDSKNTAYLQMNSLKTEDTAVYYCTFPGVVGRGGFDYWGQGTLVTVSS
VL: DIVMTQSPDSLAVSLGEGATINCMSSQSVLFSSNNKNYLAWYQQKPGQPPKLLFYWASTRESGVPDRFGGSGSGTDFSLTINSLQTEDVAVYYCLQYYSIPWTFGQGTKVEIKR
notes: Fully human anti-human TrkB agonist antibody, human IgG4 Fc; also called H4H9814P-L1

How the values were obtained:
[1] = target: T1, human TrkB extracellular domain (aa Cys32-His430) expressed with the Fc portion of human IgG1 at the … (human); assay: competition ELISA, 500 pM hTrkB-hFc pre-mixed with mAb, plate-coated hBDNF
T1 construct: also called hTrkB-hFc; hTrkB.hFc
T1 sequence (chain, as listed by the source limits assumed): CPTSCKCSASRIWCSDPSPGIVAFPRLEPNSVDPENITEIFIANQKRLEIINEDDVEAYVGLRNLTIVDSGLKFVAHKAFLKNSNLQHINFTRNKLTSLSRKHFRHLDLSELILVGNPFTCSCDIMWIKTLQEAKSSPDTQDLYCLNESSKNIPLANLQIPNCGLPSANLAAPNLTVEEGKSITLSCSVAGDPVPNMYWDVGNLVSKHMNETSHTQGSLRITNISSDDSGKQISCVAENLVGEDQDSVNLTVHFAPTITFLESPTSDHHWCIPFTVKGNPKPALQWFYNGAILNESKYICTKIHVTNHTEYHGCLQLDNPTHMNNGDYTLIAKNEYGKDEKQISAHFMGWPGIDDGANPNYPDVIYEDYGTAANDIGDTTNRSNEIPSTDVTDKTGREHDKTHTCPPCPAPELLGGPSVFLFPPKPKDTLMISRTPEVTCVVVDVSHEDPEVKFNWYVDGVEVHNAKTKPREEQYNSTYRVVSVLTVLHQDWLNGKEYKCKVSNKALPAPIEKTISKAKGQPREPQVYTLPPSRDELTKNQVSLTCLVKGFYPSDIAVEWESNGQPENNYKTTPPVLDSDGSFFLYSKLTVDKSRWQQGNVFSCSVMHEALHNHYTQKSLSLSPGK
Experimental: Experiments were carried out using the following procedure. Human BDNF or NT-4 were separately coated at a concentration of 0.5 μg/mL or 2 μg/mL, respectively, in PBS on a 96-well microtiter plate overnight at 4° C. […] Blocking solution and dilution buffer contained 5% (w/v) solution of BSA in PBS for assay with BDNF coat, or 0.5% (w/v) solution of BSA in PBS for assay with NT-4 coat. On separate microtiter plates, a constant amount of 500 pM of hTrkB-hFc protein was added to serial dilutions of antibodies with final concentrations ranging from 1.7 pM to 100 nM, and solutions with no antibody present. (The constant concentration of hTrkB-hFc for antibody inhibition assays was selected from the approximate midway point within the linear portion of individual binding curves of hTrkB-hFc to plate-coated hBDNF or hNT-4). After one hour incubation at room temperature, antibody-protein complexes with 500 pM constant concentration of hTrkB-hFc protein were transferred to microtiter plates coated with hBDNF or hNT-4. After one hour incubation at room temperature, the wells were washed, and plate-bound hTrkB-hFc was detected with anti-human Fcγ fragment specific goat polyclonal antibodies conjugated with horseradish peroxidase (JacksonImmunoResearch). The plate was then developed using TMB substrate solution (BD Biosciences) according to manufacturer's recommendation and absorbance at 450 nm was measured on a Victor plate reader (PerkinElmer™).
The ability of anti-TrkB antibodies to block TrkB binding to BDNF or NT-4 was assessed using two competition sandwich ELISAs. Human TrkB-hFc binding to hBDNF or hNT-4 coated on 96-well microtiter plates, in the presence of serially diluted antibodies or no antibody controls, were detected with HRP-conjugated anti-human Fcγ fragment specific goat polyclonal antibodies. IC₅₀ values were calculated and used as the potency indicator of antibody blocking hTrkB-hFc binding to hBDNF or hNT-4. In addition, the maximum blockade of 500 pM hTrkB-hFc with each antibody at the highest tested concentration was calculated and compared.

[2] = target: T2, rat TrkB extracellular domain expressed with a C-terminal myc-myc-hexahistidine tag (rat, UniProt Q63604 32-429); assay: SPR Biacore T200, mAb captured (anti-mFc), 25C
T2 construct: also called rTrkB.mmH; rTRKB.mmH
T2 sequence (Q63604 other isoform, or with tags, fused parts or gaps): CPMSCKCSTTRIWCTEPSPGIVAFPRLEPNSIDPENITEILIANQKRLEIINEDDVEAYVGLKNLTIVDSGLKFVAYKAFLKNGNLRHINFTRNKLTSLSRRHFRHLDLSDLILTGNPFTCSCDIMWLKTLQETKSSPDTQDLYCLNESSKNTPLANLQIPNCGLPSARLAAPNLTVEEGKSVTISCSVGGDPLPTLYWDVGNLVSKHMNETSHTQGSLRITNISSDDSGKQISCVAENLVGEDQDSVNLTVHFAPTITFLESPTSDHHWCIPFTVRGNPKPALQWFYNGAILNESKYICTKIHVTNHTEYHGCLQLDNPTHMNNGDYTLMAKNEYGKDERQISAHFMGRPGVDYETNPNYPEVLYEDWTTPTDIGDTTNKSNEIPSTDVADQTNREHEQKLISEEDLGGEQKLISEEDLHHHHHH
Experimental: (§1) Equilibrium dissociation constants (KD values) for TrkB binding to purified anti-TrkB monoclonal antibodies were determined using a real-time surface plasmon resonance biosensor using a Biacore T200 instrument. All binding studies were performed in 10 mM Hepes pH 7.4, 150 mM NaCl, 3 mM EDTA, and 0.05% v/v Surfactant Tween-20 (HBS-ET running buffer) at 25° C. The Biacore sensor surface was first derivatized by amine coupling with rabbit anti-mouse Fc polyclonal antibody (GE Healthcare #BR-1008-38) to capture anti-TrkB monoclonal antibodies. Binding studies were performed on the following TrkB reagents; human TrkB extracellular domain expressed with a C-terminal myc-myc-hexahistidine tag (hTrkB.mmH; SEQ ID NO: 76; NP_001018074.1), mouse TrkB extracellular domain expressed with a C-terminal myc-myc-hexahistidine tag (mTRKB.mmH; SEQ ID NO: 79; NP_001020245), and rat TrkB extracellular domain expressed with a C-terminal myc-myc-hexahistidine tag (rTRKB.mmH; SEQ ID NO: 84; XP_002721319.1). […] Kinetic association (kₐ) and dissociation (kd) rate constants were determined by fitting the real-time binding sensorgrams to a 1:1 binding model with mass transport limitation using Scrubber 2.0c curve-fitting software. Binding dissociation equilibrium constants (KD) and dissociative half-lives (t½) were calculated from the kinetic rate constants as: […]

[3] = target: T3, human TrkB extracellular domain expressed with a C-terminal myc-myc-hexahistidine tag (human, UniProt Q16620 32-430); assay: SPR Biacore T200, mAb captured (anti-mFc), 25C
T3 construct: also called hTrkB.mmH; hTRKB.mmH
T3 sequence (Q16620 other isoform, or with tags, fused parts or gaps): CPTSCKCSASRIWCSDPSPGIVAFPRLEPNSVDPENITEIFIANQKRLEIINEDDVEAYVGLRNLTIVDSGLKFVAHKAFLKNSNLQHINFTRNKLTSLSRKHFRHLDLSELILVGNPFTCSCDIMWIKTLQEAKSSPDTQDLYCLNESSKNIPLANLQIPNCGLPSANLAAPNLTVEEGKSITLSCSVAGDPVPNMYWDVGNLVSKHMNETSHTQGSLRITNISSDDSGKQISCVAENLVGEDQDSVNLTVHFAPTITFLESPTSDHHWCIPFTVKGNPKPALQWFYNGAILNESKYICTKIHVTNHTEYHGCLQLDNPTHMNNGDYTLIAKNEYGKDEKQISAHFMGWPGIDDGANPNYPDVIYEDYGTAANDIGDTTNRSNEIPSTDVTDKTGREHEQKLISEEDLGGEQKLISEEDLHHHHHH
Experimental: as §1

[4] = target: T4, mouse TrkB extracellular domain expressed with a C-terminal myc-myc-hexahistidine tag (mouse, UniProt P15209 32-429); assay: SPR Biacore T200, mAb captured (anti-mFc), 25C
T4 construct: also called mTrkB.mmH; mTRKB.mmH
T4 sequence (P15209 other isoform, or with tags, fused parts or gaps): as the sequence (Q63604 other isoform, or with tags, fused parts or gaps) above, with M3T, T9S, T10A, I32V, K63R, G84S, T153M, I185L, T394S counted along it
Experimental: as §1

mouse TrkB.hFc = target: T5, mouse TrkB.hFc (mouse); assay: BLI Octet, captured mTrkB.hFc, 300 nM mAb (BDNF run)
T5 construct: also called mTrkB.hFc; mTrkB-hFc
T5 sequence (chain, as listed by the source limits assumed): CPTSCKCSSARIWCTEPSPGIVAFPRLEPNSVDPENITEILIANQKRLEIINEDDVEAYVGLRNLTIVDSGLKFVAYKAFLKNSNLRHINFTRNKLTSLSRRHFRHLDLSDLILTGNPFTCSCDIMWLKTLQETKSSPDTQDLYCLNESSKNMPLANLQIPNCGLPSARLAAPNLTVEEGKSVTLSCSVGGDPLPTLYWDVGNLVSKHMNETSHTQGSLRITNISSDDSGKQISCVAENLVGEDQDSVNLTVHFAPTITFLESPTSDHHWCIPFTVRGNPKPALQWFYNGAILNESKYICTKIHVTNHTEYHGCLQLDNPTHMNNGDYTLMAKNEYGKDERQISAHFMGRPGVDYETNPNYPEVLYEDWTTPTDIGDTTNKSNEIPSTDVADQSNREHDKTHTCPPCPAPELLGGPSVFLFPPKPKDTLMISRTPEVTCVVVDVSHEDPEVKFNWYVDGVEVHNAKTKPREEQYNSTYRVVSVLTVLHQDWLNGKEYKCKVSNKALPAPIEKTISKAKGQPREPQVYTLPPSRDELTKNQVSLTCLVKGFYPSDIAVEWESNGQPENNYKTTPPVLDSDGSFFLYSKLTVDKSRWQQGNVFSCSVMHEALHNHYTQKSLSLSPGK
Experimental: Blocking of BDNF or NT-4 from binding to TrkB by anti-human TrkB or anti-mouse TrkB antibodies was evaluated using a real-time bio-layer interferometry (BLI) based Octet HTX instrument. The entire study was performed in 10 mM HEPES pH 7.4, 300 mM NaCl, 3 mM EDTA, 1 mg/mL BSA, 0.02% NaN3 and 0.05% v/v Surfactant Tween-20 (HBS-EBT running buffer) at 25° C. All the samples were dispensed in a 384 tilted well plate and the plate was placed on the orbital shaker with the shake speed of 1000 rpm. hTrkB.mFc was captured on anti-mFc (AMC) Octet sensors while hTrkB.hFc or mTrkB.hFc were captured on anti-hFc (AHC) Octet sensors by dipping in wells containing 10 μg/mL of TrkB reagents for 2 minutes. hTrkB.mFc or hTrkB.hFc captured Octet biosensors were saturated by dipping in wells containing 300 nM of different TrkB mAbs for 4 minutes followed by dipping Octet biosensors in wells containing 20 nM of BDNF, hNT-4, or mNT-4 for 2 minutes. Binding of BDNF, hNT-4, or mNT-4 to the complex of TrkB and different TrkB mAbs was determined using Scrubber 2.0c analysis software.

Binder | % Blockade with 100 nM antibody [1] | IC50 [1] | 90 nM rTrkB.mmH Bound (RU) [2] | Kd [2] | koff [2] | kon [2] | t½ [2] | 90nM hTrkB.mmH Bound (RU) [3] | binding result [3] | 90 nM TrkB.mmH Bound (RU) [4] | Kd [4] | koff [4] | kon [4] | t½ [4] | mAb Binding (nm) (mouse TrkB.hFc)
B1 | -56% |  |  |  |  |  |  |  |  |  |  |  |  |  | 
B2 | 93% | 0.15 nM |  |  |  |  |  |  |  |  |  |  |  |  | 
B3 |  |  | 33 RU | 8 nM | 0.000632 s⁻¹ | 79000 M⁻¹ s⁻¹ | 18 min | 0 RU | no binding (tested: 90 nM) | 33 RU | 8.49 nM | 0.00063 s⁻¹ | 74100 M⁻¹ s⁻¹ | 18 min | 0.42 nm
B4 |  |  | 33 RU | 26.9 nM | 0.00398 s⁻¹ | 148000 M⁻¹ s⁻¹ | 2.9 min | -2 RU |  | 32 RU | 32.4 nM | 0.00372 s⁻¹ | 115000 M⁻¹ s⁻¹ | 3.1 min | 0.42 nm
B5 | 97% | 0.17 nM |  |  |  |  |  |  |  |  |  |  |  |  | 0.42 nm
B6 | 6% |  |  |  |  |  |  |  |  |  |  |  |  |  | 
